Values quoted from earlier work, collected in article PMC4250281.

Biological target: 14-3-3 zeta (Homo sapiens) (UniProt P63104)
Chain of UniProt P63104 (P63104 whole entry): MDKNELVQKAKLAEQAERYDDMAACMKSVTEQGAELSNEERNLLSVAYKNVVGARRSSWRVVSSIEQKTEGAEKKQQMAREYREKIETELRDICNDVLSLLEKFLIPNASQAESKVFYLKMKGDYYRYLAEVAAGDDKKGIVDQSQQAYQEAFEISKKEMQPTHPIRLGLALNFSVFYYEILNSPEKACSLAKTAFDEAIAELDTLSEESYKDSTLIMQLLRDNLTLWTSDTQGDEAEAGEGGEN

Kd: 122 nM
Substance: Raf-1
